This is an account of results in US6632624.

The target of this test is CGS20. In words: competition: pancreastatin peptide (0.5 µg per tube) added in second incubation of CGS06/CGS20* IRMA.

In general, % inhibition refers to the change of the read-out against control, counted positive when it falls.

B1: synthetic peptide corresponding to pancreastatin (SEQ ID NO:1 amino acids 250 to 301 of human CgA) (peptide)
peptide: GESRSEALAVDGAGKPGAEEAQDPEGKGEQEHSQQKEEEEEMAVVPQGLFRG
Molecule B1 displayed a % inhibition of 86%.
